Patent US20180030144A1 (INNATE PHARMA, published 2018)
Numbering of substitutions follows the chain as printed. Numbers in names are those of the source. Each block holds one binder with its values, some of them ahead of it.

Key:
[1] = molecular target: T1, human CD73 mutant 3 (human, UniProt P21589 27-549); assay: flow cytometry titration on HEK293T cells transfected with human CD73 mutant 3, MFI PE
T1 construct: Transfected in HEK293T cells
T1 chain: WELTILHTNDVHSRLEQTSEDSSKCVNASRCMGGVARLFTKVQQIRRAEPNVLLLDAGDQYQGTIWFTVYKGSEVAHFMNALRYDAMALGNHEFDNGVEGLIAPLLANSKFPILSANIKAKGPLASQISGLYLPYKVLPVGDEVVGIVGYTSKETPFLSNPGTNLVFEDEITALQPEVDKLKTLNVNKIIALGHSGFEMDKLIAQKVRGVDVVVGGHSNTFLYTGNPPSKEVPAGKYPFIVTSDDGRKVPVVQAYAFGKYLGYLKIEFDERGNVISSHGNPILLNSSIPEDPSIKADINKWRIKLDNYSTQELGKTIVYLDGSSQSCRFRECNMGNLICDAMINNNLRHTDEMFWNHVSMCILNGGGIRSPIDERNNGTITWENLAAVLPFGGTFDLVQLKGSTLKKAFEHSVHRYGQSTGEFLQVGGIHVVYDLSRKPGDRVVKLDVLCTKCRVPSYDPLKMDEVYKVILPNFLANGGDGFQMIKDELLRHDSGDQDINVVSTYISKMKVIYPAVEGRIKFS

[2] = molecular target: T2, human CD73 expressed at the cell surface (human, UniProt P21589 27-549); assay: flow cytometry on MDA-MB-231 cells, medium (no APCP)
T2 construct: GPI-anchored dimer on cells; also called huCD73; cellular CD73
T2 sequence: T1 chain with S73A, A103E, A107K, N108E, S109A
Protocol: (§1) MDA-MB-231 cells are available from ATCC (reference HTB-26). 10⁵ cells resuspended in PBS/0.2% BSA/0.02% NaN3 (named “staining buffer”) are distributed into round bottom 96W-microplates. Dose-range of anti-CD73 antibodies was added to the plates and cells are incubated for 45 min at 4° C. Cells were washed three times in staining buffer by spinning plates at 400 g for 3 min at 4° C. PE-coupled goat anti-mouse or goat anti-human IgG Fc fragment secondary antibodies (Beckman Coulter) diluted in staining buffer were added to the cells and plates are incubated for 30 additional minutes at 4° C. Cells were washed three times as described above and analyzed on an Accury C6 flow cytometer equipped with an HTFC plate reader.
(§2) Cells were pre-incubated at 37° C. for 30 minutes in the presence or not of 200 μM adenosine 5′-(α,β-methylene)diphosphate (APCP), followed by addition of antibodies. APCP is an analog of ADP and binds irreversibly to the active site of CD73. When bound by APCP, CD73 changes conformation from an “open” conformation to a “closed” conformation. mAbs 11E1, 8C7, 3C12 and 6E1 bound MDA-MB-231 cells with good affinity both in the presence and absence of APCP. In the presence of APCP, the EC50 was similar to that observed in the absence of APCP. The plateau for maximal binding of 11E1, 8C7, 3C12 and 6E1 was higher in the absence of APCP than in the presence of APCP, while the inverse was true for AD2.

[3] = molecular target: T2, human CD73 expressed at the cell surface; assay: flow cytometry on MDA-MB-231 cells pre-incubated with 200 µM APCP
Protocol: as §1, §2

[4] = molecular target: T2, human CD73 expressed at the cell surface; assay: flow cytometry titration on HEK293T cells transfected with wild type human CD73, MFI PE
[5] = molecular target: T2, human CD73 expressed at the cell surface; assay: flow cytometry titration on a human-CD73-expressing recombinant host cell line, median of fluorescence
[6] = molecular target: T2, human CD73 expressed at the cell surface; assay: cell-based or functional assay
[7] = molecular target: T2, human CD73 expressed at the cell surface; assay: flow cytometry titration on MDA-MB-231 cells (endogenous CD73), median of fluorescence
Protocol: as §1
Median of fluorescence vs. antibodies concentration was plotted on graphs and EC50 is calculated using Graph Pad Prism program.

[8] = molecular target: T3, cynomolgus CD73 expressed on a recombinant host cell line (cynomolgus); assay: flow cytometry titration on a cynomolgus-CD73-expressing recombinant host cell line, median of fluorescence
T3 construct: whole, on cells; also called cynoCD73

[9] = molecular target: T2, human CD73 expressed at the cell surface; assay: cell-based or functional assay; remark: listed apart in the source
[10] = molecular target: T4, mouse CD73 expressed on a recombinant host cell line (mouse, UniProt Q61503 29-551); assay: flow cytometry titration on a mouse-CD73-expressing recombinant host cell line, median of fluorescence
T4 construct: whole, on cells; also called moCD73
T4 sequence (looked up): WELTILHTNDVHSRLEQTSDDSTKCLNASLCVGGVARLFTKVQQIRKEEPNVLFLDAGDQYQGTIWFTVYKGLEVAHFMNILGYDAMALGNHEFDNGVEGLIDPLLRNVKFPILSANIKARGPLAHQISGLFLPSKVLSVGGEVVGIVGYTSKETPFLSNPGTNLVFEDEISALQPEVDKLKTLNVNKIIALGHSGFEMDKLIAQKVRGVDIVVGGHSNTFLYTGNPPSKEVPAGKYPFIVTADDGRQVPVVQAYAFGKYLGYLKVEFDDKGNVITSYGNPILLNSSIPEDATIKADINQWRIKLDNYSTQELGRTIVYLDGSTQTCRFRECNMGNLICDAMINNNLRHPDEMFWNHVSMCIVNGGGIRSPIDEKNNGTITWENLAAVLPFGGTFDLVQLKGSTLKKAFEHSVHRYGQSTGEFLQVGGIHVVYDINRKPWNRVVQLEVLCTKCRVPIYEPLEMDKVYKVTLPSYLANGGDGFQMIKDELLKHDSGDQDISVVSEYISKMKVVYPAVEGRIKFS

[11] = molecular target: T2, human CD73 expressed at the cell surface; assay: cell-based or functional assay; remark: listed apart in the source
[12] = molecular target: T5, recombinant human CD73-His extracellular domain protein (soluble dimer) (human, UniProt P21589 27-547); assay: ELISA, plate-coated recombinant human CD73
T5 construct: Purified as a dimer; also called huCD73; soluble recombinant human CD73
T5 sequence: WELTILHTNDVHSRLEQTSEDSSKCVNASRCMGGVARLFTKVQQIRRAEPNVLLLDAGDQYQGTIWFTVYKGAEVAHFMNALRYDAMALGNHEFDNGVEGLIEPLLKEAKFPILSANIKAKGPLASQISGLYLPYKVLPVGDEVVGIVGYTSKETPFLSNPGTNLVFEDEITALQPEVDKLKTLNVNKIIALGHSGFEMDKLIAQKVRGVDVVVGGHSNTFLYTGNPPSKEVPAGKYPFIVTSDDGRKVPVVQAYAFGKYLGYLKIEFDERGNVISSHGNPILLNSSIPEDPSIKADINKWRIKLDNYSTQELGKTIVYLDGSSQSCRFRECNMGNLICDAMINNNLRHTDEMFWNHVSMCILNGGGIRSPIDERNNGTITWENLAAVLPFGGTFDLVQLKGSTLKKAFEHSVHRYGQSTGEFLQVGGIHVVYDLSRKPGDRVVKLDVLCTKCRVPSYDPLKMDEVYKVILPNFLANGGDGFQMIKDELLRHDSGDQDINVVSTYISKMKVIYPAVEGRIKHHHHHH
Protocol: 5 μg/ml of recombinant human CD73 protein (IPH, isoform E6) was coated on MaxiSorp ELISA plates (Nunc) in PBS, overnight at 4° C. Plates were washed 5 times in washing buffer (PBS, 0.05% Tween20) and unspecific sites were saturated by adding 200 μl/w TBS starting block buffer (Thermo Ficher). Dose-range of anti-CD73 antibodies were incubated for 2 h at 37° C. Plates were washed 5 times in washing buffer and HRP-coupled goat anti-human or goat anti-mouse IgG Fc fragment secondary antibody (Bethyl, 1/50000) was added for 1 hr at RT to detect bound anti-CD73 antibodies. […] The enzymatic reaction was stopped by adding HCl 1M and O.D. was measured at 450 nm. Optical density vs. anti-CD73 Ab concentration was plotted on graphs and EC50 is calculated using GraphPad Prism software.

[13] = molecular target: T5, recombinant human CD73-His …; assay: cell-based or functional assay

EC50 (read off the curve) [1]: ~0.1 µg/mL
EC50 [2]: 0.0629 µg/mL
EC50 [3]: 0.0959 µg/mL
EC50 (read off the curve) [4]: ~0.2 µg/mL
B1: antibody AD2 (Biolegend, product ref. 344004) (antibody, V domains shown)
VH: EVQLQQSGAELVKPGASVKLSCTASGFNIKDTYIHWVKQRPEQGLEWIGRIDPATGNTEYDPKFQGKATITADTSSNTAYLHLSSLTSEDTAVYYCARGYYGSSYPPWFAYWGQGTLVTVS
VL: DIVMTQSHKFMSTSVGDRVSITCKASQDVGSAVAWYQQKPGQSPKLLIYWASTRHTGVPDRFTGSGSGTDFTLTISNVQSEDLADYFCQQYSSYPLTFGAGTKLELK

EC50 (read off the curve) [5]: ~0.1 µg/mL
decrease of the enzymatic activity of cellular CD73 (MDA-MB-231 cells) [6]: > 75%
EC50 (read off the curve) [7]: ~0.1 µg/mL
EC50 (read off the curve) [8]: ~0.4 µg/mL
EC50 [2]: 0.0903 µg/mL
EC50 for neutralization of 5'-ectonucleotidase activity, mean over MDA-MB-231, H292 and A375 cells [9]: 0.21 µg/mL
EC70 for neutralization of 5'-ectonucleotidase activity, mean over MDA-MB-231, H292 and A375 cells [9]: 0.46 µg/mL
EC100 for neutralization of 5'-ectonucleotidase activity, mean over MDA-MB-231, H292 and A375 cells [9]: 0.72 µg/mL
binding result [10]: no binding (tested: about 30 µg/ml)
EC50 for neutralization of the enzymatic activity of cellular CD73 (MDA-MB-231 cells, free phosphate from AMP) [11]: 0.319 µg/mL
EC50 [12]: 0.009 µg/mL
EC50 [3]: 0.143 µg/mL
EC50 for CD73 blockade (enzymatic activity of soluble recombinant human CD73-his) [13]: 1.29 µg/mL
B2: antibody 8C7 (antibody, human IgG1, V domains shown)
VH: EVQLQQSGPELVKPGASVKVSCKASGYAFASYNMNWVKQSHGKSLDWIGYIDPYNGGSSYNLTFKGKATLTVDKSSTTAYMHLNSLTSEDSAVYYCARGYGNYKAWFAYWGQGTLVTVSA
VL: SIVMTPTPKFLLVSAGDRVTITCKASQSVSNDVAWYQQKPGQSPKLLIYYASTRYTGVPDRFTGSGYGTDFTFTISTVQAEDLAVYFCQQDYSSLTFGAGTKLELKR
notes: Produced as chimeric human IgG1 with heavy chain N297Q (Kabat EU numbering); RTVAAP)
